Measured values as given in doi:10.1101/2021.08.19.457009 (bioRxiv, 2021).
Residue numbers refer to the chain shown, from its start. In names and notes the source's numbering stands. Non-standard residues stand in square brackets, D forms with d. No end group written: not given here. pS = N[C@@H](COP(=O)(O)O)C(=O)O

Tests used:
human 6His-14-3-3ζ [1] = target: T1, human 6His-14-3-3ζ (human, UniProt P63104 1-245); assay: pull-down
T1 sequence (looked up): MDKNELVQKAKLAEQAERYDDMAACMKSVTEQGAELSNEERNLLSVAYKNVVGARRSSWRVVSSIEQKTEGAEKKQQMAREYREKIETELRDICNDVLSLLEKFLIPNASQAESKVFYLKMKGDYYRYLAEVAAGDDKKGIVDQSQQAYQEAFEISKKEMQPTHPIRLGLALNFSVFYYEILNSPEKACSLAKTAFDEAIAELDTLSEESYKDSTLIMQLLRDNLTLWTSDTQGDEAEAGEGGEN

human 6His-14-3-3ζ [2] = target: T1, human 6His-14-3-3ζ; assay: ITC

With “SNAP-TM-HCN1CT reporter lacking the region containing peptide C (amino acids 850-880) (domain or fragment)” as the molecule, how does the amount pulled down relative to CT (598-910) (human 6His-14-3-3ζ [1]) read?
Its amount pulled down relative to CT (598-910) is 0.61 fold.

Which amount pulled down relative to CT (598-910) (human 6His-14-3-3ζ [1]) does the source give for “SNAP-TM-HCN1CT reporter lacking the distal 30 amino acid block with the TRIP8b-tripeptide binding site (domain or fragment)” here?
The amount pulled down relative to CT (598-910) was 1.18 fold.

With “SNAP-TM-HCN1CT reporter also lacking the region containing peptide B (residues 790-820) (domain or fragment)” as the molecule, how does the amount pulled down relative to CT (598-910) (human 6His-14-3-3ζ [1]) read?
The amount pulled down relative to CT (598-910) was 0.23 fold.

With TLFRQM[pS]SGAI [HCN1 phospho-peptide C] as the molecule, how does the Kd (human 6His-14-3-3ζ [2]) read?
Its Kd is 15 µM.

With VRPLSA[pS]QPSL [HCN1 phospho-peptide B] as the molecule, how does the Kd (human 6His-14-3-3ζ [2]) read?
The Kd was 25 µM.

With SRMRTQ[pS]PPVY [HCN1 phospho-peptide A] as the molecule, how does the Kd (human 6His-14-3-3ζ [2]) read?
Its Kd is 16 µM.

B1: SNAP-TM-HCN1CT reporter truncated of residues 803-910 (domain or fragment, mouse, UniProt O88704 598-802, looked up)
chain: LNTGVFNNQENEILKQIVKHDREMVQAIPPINYPQMTALNCTSSTTTPTSRMRTQSPPVYTATSLSHSNLHSPSPSTQTPQPSAILSPCSYTTAVCSPPIQSPLATRTFHYASPTASQLSLMQQPQQQLPQSQVQQTQTQTQQQQQQQQQQQQQQQQQQQQQQQQQQQQQQQQQQQQQPQTPGSSTPKNEVHKSTQALHNTNLTK
How did the “amount pulled down relative to CT_(598-910)” value (human 6His-14-3-3ζ [1]) turn out when B1 was run?
Its value is 0.2 fold.

B2: SNAP-TM-HCN1CT reporter CT_(731-910; Δ804-814; Δ861-871) (domain or fragment, mouse, UniProt O88704 731-910, looked up)
chain: VQQTQTQTQQQQQQQQQQQQQQQQQQQQQQQQQQQQQQQQQQQQQPQTPGSSTPKNEVHKSTQALHNTNLTKEPHEVSTLISRPHPTVGESLASIPQPVAAVHSTGLQAGSRSTVPQRVPPNRGVPPAPPPPAAVQRESPSVLNTDPDAEKPRFASNL
Which “amount pulled down relative to CT_(731-910)” value (human 6His-14-3-3ζ [1]) does the source give for B2 here?
Its value is 0.26 fold.

B3: SNAP-TM-HCN1CT reporter CT_(731-910) (domain or fragment, mouse, UniProt O88704 731-910, looked up)
chain: VQQTQTQTQQQQQQQQQQQQQQQQQQQQQQQQQQQQQQQQQQQQQPQTPGSSTPKNEVHKSTQALHNTNLTKEVRPLSASQPSLPHEVSTLISRPHPTVGESLASIPQPVAAVHSTGLQAGSRSTVPQRVTLFRQMSSGAIPPNRGVPPAPPPPAAVQRESPSVLNTDPDAEKPRFASNL
For B3, which “amount pulled down relative to CT_(598-910)” value (human 6His-14-3-3ζ [1]) is on record?
Its value is 1.39 fold.

B4: SNAP-TM-HCN1CT reporter CT_(731-910; S810A; S867A) (domain or fragment, mouse, UniProt O88704 731-910, looked up)
chain: B3 chain with S80A, S137A
B4 was tested. Which “amount pulled down relative to CT_(731-910)” value (human 6His-14-3-3ζ [1]) did it give?
The value was 0.33 fold.
